Data reported in patent US20220291215A1.

How the values were obtained:
[1] = biological target: DP4/MAGE-A3243-258 TCR, clone R12C9
[2] = biological target: DP4/MAGE-A3243-258 TCR, clone R12C9; remark: listed apart in the source

Substance Control (peptide-MHC) has a % dimer+ Vβ22+ cells [1] of 0.1% and a % dimer+ CD4+ cells [2] of 0.4%.
